The text below walks through data of publication PMC10714992, “A monoclonal antibody targeting spore wall protein 1 inhibits the proliferation of Nosema bombycis in Bombyx mori” (Microbiology Spectrum, 2023).

The target in experiment [1] is T1, recombinant GST-SWP1 fusion protein (Nosema bombycis CVCC 102059, UniProt B3STN5).
T1 construct: spore wall protein 1 (SWP1) of Nosema bombycis, gene cloned by PCR into pGEX-4T-1 (BamH I / XhoI); also called rGST-SWP1; source: E. coli Rosetta, pGEX-4T-1, purified (Glutathione Sepharose)
The experiment is described as follows: ELISA; indirect ELISA: plates coated with recombinant GST-SWP1 (0.3 ug/well) overnight at 4 C, recombinant 6xHis-tagged antibodies from baculovirus added for 1 h at room temperature, detected with anti-6xHis rabbit mAb; titer. Conditions: both partners purified. Background: In an ELISA, binding on a coated surface is turned into a signal by an enzyme label.

Experiment [2] concerns the target T2, prokaryotic-expressed recombinant SWP1 (Nosema bombycis CVCC 102059, UniProt B3STN5).
T2 construct: spore wall protein 1 (SWP1) of Nosema bombycis, gene cloned by PCR from cDNA into pET30a (BamH I / HindIII); also called rSWP1; source: E. coli Rosetta, pET30a, purified (Ni-NTA)
The experiment is described as follows: Western blot; rSWP1 separated by SDS-PAGE; hemolymph or cell lysate of transgenic silkworms used as primary antibody. The settings on record: one partner purified.

In experiment [3] the target is T3, Nosema bombycis spore wall protein 1, native (Nosema bombycis (strain CQ1 / CVCC …, UniProt B3STN5)).
T3 construct: spore wall protein 1 (SWP1) of Nosema bombycis, gene locus NBO_552g0005; also called SWP1; native SWP1
Put plainly: Western blot; alkali-soluble germination (spore) proteins separated by SDS-PAGE on PVDF; culture supernatant or lysate of G9-Neo, scFvG9-Neo and NscFvG9-Neo BmE cells used as primary antibody. Conditions: partners not purified. (A western blot detects proteins with antibodies after separation by electrophoresis.)

T2 sequence (B3STN5 20-278): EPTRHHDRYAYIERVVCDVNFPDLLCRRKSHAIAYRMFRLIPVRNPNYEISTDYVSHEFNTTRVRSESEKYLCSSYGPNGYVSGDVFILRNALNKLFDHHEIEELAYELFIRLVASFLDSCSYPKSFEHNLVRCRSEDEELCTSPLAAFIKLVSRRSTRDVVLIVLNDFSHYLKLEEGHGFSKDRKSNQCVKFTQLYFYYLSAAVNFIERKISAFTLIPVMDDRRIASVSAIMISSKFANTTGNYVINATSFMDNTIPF
T3 sequence (B3STN5 20-278): as above
T1 sequence (B3STN5 20-278): as above

B1: recombinant scFvG9 from the baculovirus expression system (scFv, V domains shown)
VH: QVQLQQSGAELARPGASVKMSCKASGYTFTGFSIHWVKQRPGQGLEWIGYINPSSAYTKYNQNFKDKATLTADKSSSTAYMQLNSLTSDDSAVYYCAYRYDVGDYWGQGTSVTVSS
VL: DIVITQSPSSLAVSAGEKVTLSCKSSQSLFNSRTRKNYLAWYQQKPGQSPKLLIYWASTRESGVPDRFTGSGSGTDFTLTISSVQAEDLAVYYCKQSYYLWTFGGGAKLEIK
notes: variable domain of the heavy chain of m1; (G4S)3 linker; variable domain of the light chain of m1; The construct contains a signal peptide and a 6xHis tag; Detected in the ELISA by an anti-6xHis antibody; also called rscFvG9; pFast-rscFvG9; source: Bac-to-Bac baculovirus system, insect cells (Sf-900 III / Sf9), serum-free medium, purified (Ni-NTA); not shown: His6, C-terminal, kept
Take B1: the binding result in experiment [1] is on record as “binds”.

B2: recombinant G9 intact antibody (rG9H + rG9L) from the baculovirus expression system (antibody, V domains shown)
VH: B1 VH
VL: B1 VL
notes: as the heavy chain of m1 (rG9H); as the light chain of m1 (rG9L); rG9H contains a signal peptide at the 5' end and is driven by the polyhedrin promoter; rG9L is driven by the p10 promoter; Detected in the ELISA by an anti-6xHis antibody; also called pFast-rG9; source: Bac-to-Bac baculovirus system, insect cells (Sf-900 III / Sf9), serum-free medium, purified (Ni-NTA); not shown: His6, C-terminal, …
As to B2, in experiment [1], the binding result is listed as “binds”.

B3: G9 intact antibody expressed in G9 transgenic silkworm (antibody, V domains shown)
VH: B1 VH
VL: B1 VL
notes: as the heavy chain of m1 (G9H); as the light chain of m1 (G9L); Same IE1-G9H-SV40 + IE1-G9L-SV40 cassettes as m2, in pBac[A3-EGFP]; G9H has a signal peptide at the 5' end; It is not clear whether the light chain also carries a signal peptide and His tag; source: transgenic silkworm (Bombyx mori), hemolymph and cell lysate
B3: in experiment [2], the binding result was “binds”.

B4: G9 intact antibody expressed in G9-Neo transgenic BmE cells (antibody, V domains shown)
VH: B1 VH
VL: B1 VL
notes: as the heavy chain of m1 (G9H); as the light chain of m1 (G9L); G9H was amplified with a signal peptide at the 5' end and a 6xHis tag at the 3' end; The light chain was made 'similarly', so it is not clear whether it also carries them; IE1 promoter; also called G9H + G9L
As to B4, the binding result in experiment [3] is “binds”.

B5: NscFvG9 expressed in NscFvG9-Neo transgenic BmE cells (scFv, V domains shown)
VH: B1 VH
VL: B1 VL
notes: variable domain of the heavy chain of m1; (G4S)3 linker; variable domain of the light chain of m1; scFvG9 with the signal peptide of VH removed, expressed intracellularly; also called scFv without the secretory signal peptide
For B5, the binding result in experiment [3] was “binds”.

B6: NscFvG9 expressed in NscFvG9 transgenic silkworm (scFv, V domains shown)
VH: B1 VH
VL: B1 VL
notes: variable domain of the heavy chain of m1; (G4S)3 linker; variable domain of the light chain of m1; Same IE1-NscFvG9-SV40 cassette as m4 (no signal peptide), in pBac[3xP3-EGFP]; also called NscFv9; source: transgenic silkworm (Bombyx mori), cell lysate
On to B6, for which the binding result in experiment [2] is given as “binds”.

B7: scFvG9 expressed in scFvG9-Neo transgenic BmE cells (scFv, V domains shown)
VH: B1 VH
VL: B1 VL
notes: variable domain of the heavy chain of m1; (G4S)3 linker; variable domain of the light chain of m1; The construct encodes an N-terminal secretion signal peptide from the CL40 anti-EBV/HHV-4 gHgL immunoglobulin heavy chain
For the molecule B7, the binding result in experiment [3] is reported as “binds”.

B8: scFvG9 expressed in scFvG9 transgenic silkworm (scFv, V domains shown)
VH: B1 VH
VL: B1 VL
notes: variable domain of the heavy chain of m1; (G4S)3 linker; variable domain of the light chain of m1; Same IE1-scFvG9-SV40 cassette as m3, which encodes a secretion signal peptide; also called scFv9; source: transgenic silkworm (Bombyx mori), hemolymph
For the molecule B8, the binding result in experiment [2] is given as “binds”.
